{
  "source": "paper PMC7218866",
  "about": "“Impact of Self-Assembled Monolayer Design and Electrochemical Factors on Impedance-Based Biosensing”",
  "binders": {"B1": {"name": "lysozyme aptamer (thiolated) (ssDNA)", "DNA": "AGCAGCACAGAGGTCAGATGGCAGGTAAGCAGGCGGCTCACAAAACCATTCGCATGCGGC", "modifications": "5' thiol-C6 (SH-C6), immobilized on gold in SAM"}},
  "target": "lysozyme (UniProt P00698 19-147)",
  "sequence (P00698 19-147)": "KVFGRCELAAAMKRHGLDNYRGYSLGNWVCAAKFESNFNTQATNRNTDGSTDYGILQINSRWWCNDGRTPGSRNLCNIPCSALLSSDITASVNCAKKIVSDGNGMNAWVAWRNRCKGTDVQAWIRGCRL",
  "assay": "electrochemical impedance spectroscopy (EIS); dense aptamer SAM (no MCH dilution), ferricyanide reporter; RCT change significant from 8 nM (LOD), up to 12%; 1x HBS, pH 7.4, redox reporter (ferricyanide or methylene blue) in solution; aptamer on gold electrode; temperature not stated",
  "settings": "protein: commercial",
  "data": [
    {"binder": "B1", "values": [
      {"measurement": "binding result", "result": "binds"}
    ]}
  ]
}
